Experiments:
CbbR_7120 [1] = target: T1, CbbR_7120 (Nostoc sp. PCC 7120, UniProt Q8YQ82 1-337); experiment: competition EMSA; competitor vs FAM-DNA; EMSA: 5X buffer 100 mM HEPES pH 7.6, 5 mM EDTA, 50 mM (NH4)2SO4, 5 mM DTT, 1% Tween 20, 150 mM KCl (2.5 uL per reaction, volume printed as 10 mL); 15 min on ice; 6% TBE-PAGE on ice; settings: protein: recombinant; tags: N-terminal 6xHis; chain copies: 4; blunt
T1 sequence: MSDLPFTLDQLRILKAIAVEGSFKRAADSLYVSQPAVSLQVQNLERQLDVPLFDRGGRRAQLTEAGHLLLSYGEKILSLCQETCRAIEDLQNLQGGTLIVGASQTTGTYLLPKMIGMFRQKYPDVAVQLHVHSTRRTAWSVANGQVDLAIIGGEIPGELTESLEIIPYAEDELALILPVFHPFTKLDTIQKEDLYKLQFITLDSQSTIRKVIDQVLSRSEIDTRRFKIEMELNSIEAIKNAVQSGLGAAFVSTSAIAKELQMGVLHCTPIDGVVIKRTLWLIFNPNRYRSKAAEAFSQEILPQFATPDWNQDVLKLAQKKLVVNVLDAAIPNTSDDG

CbbR_7120 [2] = target: T1, CbbR_7120; experiment: as above; settings: protein: recombinant; tags: N-terminal 6xHis; chain copies: 4; blunt; remark: listed apart in the source
CbbR_7120 [3] = target: T1, CbbR_7120; experiment: EMSA; EMSA: 5X buffer 100 mM HEPES pH 7.6, 5 mM EDTA, 50 mM (NH4)2SO4, 5 mM DTT, 1% Tween 20, 150 mM KCl (2.5 uL per reaction, volume printed as 10 mL); 15 min on ice; 6% TBE-PAGE on ice; settings: protein: recombinant; tags: N-terminal 6xHis; chain copies: 4; label: 5'-FAM on forward strand; blunt
CbbR_7120 [4] = target: T1, CbbR_7120; experiment: competition EMSA; competitor vs FAM-DNA; no significant change in free FAM-DNA; EMSA: 5X buffer 100 mM HEPES pH 7.6, 5 mM EDTA, 50 mM (NH4)2SO4, 5 mM DTT, 1% Tween 20, 150 mM KCl (2.5 uL per reaction, volume printed as 10 mL); 15 min on ice; 6% TBE-PAGE on ice; settings: protein: recombinant; tags: N-terminal 6xHis; chain copies: 4; blunt
CbbR_7120 [5] = target: T1, CbbR_7120; experiment: competition EMSA; competitor vs FAM-DNA; EMSA: 5X buffer 100 mM HEPES pH 7.6, 5 mM EDTA, 50 mM (NH4)2SO4, 5 mM DTT, 1% Tween 20, 150 mM KCl (2.5 uL per reaction, volume printed as 10 mL); 15 min on ice; 6% TBE-PAGE on ice; settings: protein: recombinant; tags: N-terminal 6xHis; chain copies: 4; blunt; remark: listed apart in the source

B1: BOX1OP1 (dsDNA)
DNA 1: TGTAATAACAAATTTAAATATGTCATATAACAAATTTAAATATGT
DNA 2: ACATATTTAAATTTGTTATATGACATATTTAAATTTGTTATTACA
With B1 as the binder, how does the binding signal (CbbR_7120 [1]) read?
Its binding signal is ~10 competitor:FAM-DNA ratio for complete competition.

B2: BOX 1 (dsDNA)
DNA 1: TAATAACAAATTTAAATAT
DNA 2: ATATTTAAATTTGTTATTA
For B2, which binding signal (CbbR_7120 [2]) is on record?
Its binding signal is ~400 competitor:FAM-DNA ratio for complete competition.

B3: FAM-DNA (rbcLXS promoter probe) (dsDNA)
DNA 1: TAATAACAAATTTAAATATGTAAGTTAAGAACTTTCAAAGAATAACTTATGCCATTTCTTGATAT
DNA 2: ATATCAAGAAATGGCATAAGTTATTCTTTGAAAGTTCTTAACTTACATATTTAAATTTGTTATTA
Does B3 bind (CbbR_7120 [3])?
Result: binds

B4: BOX 2 (dsDNA)
DNA 1: AGTTAAGAACTTTCAAAGA
DNA 2: TCTTTGAAAGTTCTTAACT
Does B4 bind (CbbR_7120 [4])?
Result: no binding

B5: BOX 3 (dsDNA)
DNA 1: TTATGCCATTTCTTGATAT
DNA 2: ATATCAAGAAATGGCATAA
Which binding signal (CbbR_7120 [5]) does the source give for B5 here?
The binding signal was ~1000 competitor:FAM-DNA ratio for complete competition.

Source: publication doi:10.1101/2020.08.04.235895, “Analysis of Structure and function by the LysR-Type Transcriptional Regulator CbbR of Nostoc sp. PCC 7120”
